The assay addresses methionine adenosyltransferase II regulatory β subunit, wild type (human MAT2B, V1 form) (human) (UniProt Q9NZL9). In words: AUC; sedimentation equilibrium of purified β (0.2-0.5 mg/ml), 293 K.

Consider one substance from article PMC3506619, “NADP^+ Binding to the Regulatory Subunit of Methionine Adenosyltransferase II Increases Intersubunit Binding Affinity in the Hetero-Trimer” (PLoS ONE, 2012).

By stoichiometry N is commonly meant a count of units in the complex or per binding partner. Consider “methionine adenosyltransferase II regulatory β subunit, wild type (human MAT2B, V1 form) (from UniProt Q9NZL9 1-334) (natural protein)”, for which the stoichiometry N was 2.
